According to US20060210570A1 (Genentech, published 2006):

B1: sHAI-1B(K401A) (other, human, UniProt O43278 36-465, looked up)
chain: GPPPAPPGLPAGADCLNSFTAGVPGFVLDTNASVSNGATFLESPTVRRGWDCVRACCTTQNCNLALVELQPDRGEDAIAACFLINCLYEQNFVCKFAPREGFINYLTREVYRSYRQLRTQGFGGSGIPKAWAGIDLKVQPQEPLVLKDVENTDWRLLRGDTDVRVERKDPNQVELWGLKEGTYLFQLTVTSSDHPEDTANVTVTVLSTKQTEDYCLASNKVGRCRGSFPRWYYDPTEQICKSFVYGGCLGNKNNYLREEECILACRGVQGGPLRGSSGAQATFPQGPSMERRHPVCSGTCQPTQFRCSNGCCIDSFLECDDTPNCPDASDEAACEKYTSGFDELQRIHFPSDKGHCVDLPDTGLCAESIPRWYYNPFSEHCARFTYGGCYGNKNNFEEEQQCLESCRGISKKDVFGLRREIPIPSTGSVE
B2: prostasin (recombinant human, soluble, active two-chain form purified from conditioned medium of CHO cells transfected with full-length prostasin) (enzyme)
chain: not shown
notes: also called purified prostasin; soluble prostasin
B3: sHAI-1B(R260A) (other, human, UniProt O43278 36-465, looked up)
chain: GPPPAPPGLPAGADCLNSFTAGVPGFVLDTNASVSNGATFLESPTVRRGWDCVRACCTTQNCNLALVELQPDRGEDAIAACFLINCLYEQNFVCKFAPREGFINYLTREVYRSYRQLRTQGFGGSGIPKAWAGIDLKVQPQEPLVLKDVENTDWRLLRGDTDVRVERKDPNQVELWGLKEGTYLFQLTVTSSDHPEDTANVTVTVLSTKQTEDYCLASNKVGRCAGSFPRWYYDPTEQICKSFVYGGCLGNKNNYLREEECILACRGVQGGPLRGSSGAQATFPQGPSMERRHPVCSGTCQPTQFRCSNGCCIDSFLECDDTPNCPDASDEAACEKYTSGFDELQRIHFPSDKGHCVDLPDTGLCKESIPRWYYNPFSEHCARFTYGGCYGNKNNFEEEQQCLESCRGISKKDVFGLRREIPIPSTGSVE

Assays:
[1] = target: B2; test: cell-based or functional assay
sHAI-1B(R260A) = target: B3; test: incubation at 37 C, SDS-PAGE and immunoblot with anti-HAI-1B polyclonal antibody
Experimental: (§1) FIG. 2. […] Prostasin of indicated concentration was incubated with 20 nM wildtype sHAI-1B (A) or mutant sHAI-1B (B) at 37° C. for 0.5 or 2 h. The reactions were stopped by addition of SDS sample buffer with DTT. 30 μl of each sample was boiled or not boiled (as indicated) followed by immunoblotting analysis using anti-HAI-1B polyclonal antibody.
(§2) Prostasin was incubated with sHAI-1B comprising the entire extracellular domain of HAI-1B (Kirchhofer, Peek et al. 2003) at different molar ratios (FIG.2A).

aprotinin = aprotinin (UniProt P00974 36-93); test: affinity chromatography of prostasin on immobilised aprotinin
sHAI-1B(K401A) = target: B1; test: prostasin incubated with 20 nM mutant sHAI-1B, immunoblot (FIG. 2B)
Experimental: as §1, §2

[2] = target: B2; test: cell-based or functional assay; remark: listed apart in the source

Row | IC50 (nM), inhibition of prostasin amidolytic activity towards S2765 [1] [nM] | binding result (sHAI-1B(R260A)) | binding result (aprotinin) | binding result (sHAI-1B(K401A)) | fold less potent than wildtype sHAI-1B in the prostasin inhibition assay [2] [fold] | inhibitory activity of KD2 relative to KD1 in prostasin enzymatic assays [2] [%] | Binder
1 | 75.3 |  |  |  |  |  | B1
2 |  | no binding | binds | binds |  |  | B2
3 | > 1000 |  |  |  | ≥ 18 | < 6 | B3
